{"source": "patent US20200062843A1", "about": "(CRAGE MEDICAL, published 2020)", "binders": {"B1": {"name": "murine antibody HD37 (scFv chimeric with human IgG1 Fc) (Fc fusion)", "VH": "QVQLQQSGAELVRPGSSVKISCKASGYAFSSYWMNWVKQRPGQGLEWIGQIWPGDGDTNYNGKFKGKATLTADESSSTAYMQLSSLASEDSAVYFCARRETTTVGRYYYAMDYWGQGTTVTVSS", "VL": "DIQLTQSPASLAVSLGQRATISCKASQSVDYDGDSYLNWYQQIPGQPPKLLIYDASNLVSGIPPRFSGSGSGTDFTLNIHPVEKVDAATYHCQQSTEDPWTFGGGTKLEIKR", "notes": "also called parental antibody HD37; parental HD37"}, "B2": {"name": "humanized antibody huHD37 (scFv_Fc fusion antibody) (Fc fusion)", "scFv": "QVQLVQSGAEVKKPGSSVKVSCKASGYTFSSYWMNWVRQAPGQGLEWMGQIWPGDGDTNYNGKFKGRVTITADESTSTAYMELSSLRSEDTAVYYCARRETTTVGRYYYAMDYWGQGTTVTVSSGGGGSGGGGSGGGGSDIVLTQSPASLAVSPGQRATITCKASQSVDYDGDSYLNWYQQKPGQPPKLLIYDASNLVSGVPARFSGSGSGTDFTLTINPVEANDTANYYCQQSTEDPWTFGQGTKVEIKR", "notes": "also called humanized huHD37; not shown: human IgG1 Fc fragment carried by the eukaryotic expression vector V152"}, "B3": {"name": "clone 6B3 (scFv_Fc) (Fc fusion)", "scFv": "B2 scFv with M34I, D57E, N59H"}, "B4": {"name": "clone 8E3 (scFv_Fc) (Fc fusion)", "scFv": "B2 scFv with Q166H, V168L, S174N", "notes": "Only the light chain is said to differ from huHD37; not shown: Human Fc fragment of expression vector V152 (and any junction residues to it)"}}, "key": {"human CD19 [1]": {"target": "T1, human CD19 (human, UniProt P15391 20-556)", "T1 construct": "In the killing assay it is also on Daudi and Raji cells; also called K562-CD19; K562 cells stably transfected with human CD19", "T1 sequence": "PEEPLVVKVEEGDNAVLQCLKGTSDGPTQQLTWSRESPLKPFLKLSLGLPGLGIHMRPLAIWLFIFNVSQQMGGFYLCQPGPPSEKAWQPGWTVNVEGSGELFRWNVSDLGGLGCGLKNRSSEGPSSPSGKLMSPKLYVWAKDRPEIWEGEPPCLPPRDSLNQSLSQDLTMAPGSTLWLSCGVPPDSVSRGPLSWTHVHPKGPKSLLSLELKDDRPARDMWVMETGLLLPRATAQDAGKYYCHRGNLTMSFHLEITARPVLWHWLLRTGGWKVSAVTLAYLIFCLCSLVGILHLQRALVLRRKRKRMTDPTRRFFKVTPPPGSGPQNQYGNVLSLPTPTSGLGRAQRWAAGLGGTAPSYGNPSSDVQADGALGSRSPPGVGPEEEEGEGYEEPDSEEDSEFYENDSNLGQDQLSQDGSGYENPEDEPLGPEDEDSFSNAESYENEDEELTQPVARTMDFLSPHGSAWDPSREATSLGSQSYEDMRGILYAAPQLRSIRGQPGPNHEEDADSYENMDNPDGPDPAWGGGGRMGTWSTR", "experiment": "flow cytometry on K562-CD19 cells", "protocol": "(§1) K562 cells (K562-CD19) stably expressing human CD19 and K562 were used, and cells were harvested, washed with complete growth medium and plated into U-bottom microtiter plates at approximately 1−5×10⁵ cells/well. The gradient-diluted huHD37 scFv_Fc fusion antibody was incubated with K562-CD19/K562 for 30 minutes on ice, and then incubated with FITC-labeled anti-human Fc as a secondary antibody. After two washing steps, the analysis was performed using Guava easyCyte™ HT System, and the experimental data was processed using GraphPad Prism to obtain an EC50."}, "human CD19 [2]": {"target": "T1, human CD19", "experiment": "flow cytometry, scFv_Fc on K562-CD19 cells, FITC anti-human Fc", "protocol": "as §1\nK562 cells stably expressing human CD19 (K562-CD19) and K562 were used, and cells were harvested, washed with complete growth medium, and plated into U-bottom microtiter plates at approximately 1−5×10⁵ cells/well. The gradient diluted scFv_Fc fusion antibody was incubated with K562-CD19/K562 for 30 minutes on ice, and then incubated with FITC-labeled anti-human Fc as a secondary antibody. After two washing steps, the analysis was performed using Guava easyCyte™ HT System, and the experimental data was processed using GraphPad Prism to obtain an EC50."}, "human CD19 [3]": {"target": "T2, human CD19 (UniProt P15391 20-556)", "T2 chain": "T1 sequence", "experiment": "FACS cell binding; avid"}, "human CD19 [4]": {"target": "T2, human CD19", "experiment": "FACS cell binding; avid"}}, "note": "Changes are numbered by the printed parent chain. Like-named read-outs stand apart in the source and are kept apart here.", "data": [{"binder": "B1", "values": [{"measurement": "binding result", "setting": "human CD19 [1]", "result": "binds"}]}, {"binder": "B2", "values": [{"measurement": "binding result", "setting": "human CD19 [2]", "result": "binds"}, {"measurement": "EC50", "setting": "human CD19 [3]", "result": 4.7, "unit": "nM"}]}, {"binder": "B3", "values": [{"measurement": "EC50", "setting": "human CD19 [4]", "result": 2.74, "unit": "nM"}]}, {"binder": "B4", "values": [{"measurement": "EC50", "setting": "human CD19 [4]", "result": 4.72, "unit": "nM"}, {"measurement": "binding result", "setting": "human CD19 [2]", "result": "binds"}]}]}
